For test [1], the target named is T1, biotinylated mouse FcRn protein (mouse, UniProt Q61559 22-297, biotin (biotinylated; site not stated)).
T1 construct: neonatal Fc receptor (FcRn), mouse; also called mouse neonatal Fc-receptor; source: bought: Acro Biosystems
T1 sequence (looked up): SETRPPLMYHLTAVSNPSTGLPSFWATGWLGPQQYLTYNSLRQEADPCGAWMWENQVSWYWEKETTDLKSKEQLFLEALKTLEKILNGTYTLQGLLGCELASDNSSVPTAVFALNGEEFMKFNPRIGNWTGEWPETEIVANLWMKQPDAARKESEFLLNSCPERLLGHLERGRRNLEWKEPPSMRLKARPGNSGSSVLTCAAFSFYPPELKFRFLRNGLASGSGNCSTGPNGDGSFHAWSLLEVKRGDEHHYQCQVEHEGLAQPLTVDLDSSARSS
Briefly: BLI; biotinylated mouse FcRn (1.0 ug/mL) immobilised on streptavidin biosensor tip; MDTCS-Fc 0.625 to 20 nM in solution; 25 mM acetate, 25 mM NaH2PO4, 150 mM NaCl, 0.01% Tween-20, pH 6.0; association 5 min, dissociation 5 min; Octet Qke; biosensors without FcRn subtracted. Particulars: both partners purified. A general note: BLI is a label-free optical method that tracks binding on a fibre tip over time.

For test [2], the target named is T1, biotinylated mouse FcRn protein. Described as above. Particulars: both partners purified. The source holds these as a separate data set.

As a reminder, the Kd is the concentration at which binding is half-saturated. Read a high Kd as a looser complex. Usually koff stands for the rate constant with which the complex falls apart. Read a low koff as a long-lived complex.

B1: MDTCS-Fc (Fc fusion)
chain: AAGGILHLELLVAVGPDVFQAHQEDTERYVLTNLNIGAELLRDPSLGAQFRVHLVKMVILTEPEGAPNITANLTSSLLSVCGWSQTINPEDDTDPGHADLVLYITRFDLELPDGNRQVRGVTQLGGACSPTWSCLITEDTGFDLGVTIAHEIGHSFGLEHDGAPGSGCGPSGHVMASDGAAPRAGLAWSPCSRRQLLSLLSAGRARCVWDPPRPQPGSAGHPPDAQPGLYYSANEQCRVAFGPKAVACTFAREHLDMCQALSCHTDPLDQSSCSRLLVPLLDGTECGVEKWCSKGRCRSLVELTPIAAVHGRWSSWGPRSPCSRSCGGGVVTRRRQCNNPRPAFGGRACVGADLQAEMCNTQACEKTQLEFMSQQCARTDGQPLRSSPGGASFYHWGAAVPHSQGDALCRHMCRAIGESFIMKRGDSFLDGTRCMPSGPREDGTLSLCVSGSCRTFGCDGRMDSQQVWDRCQVCGGDNSTCSPRKGSFTAGRAREYVTFLTVTPNLTSVYIANHRPLFTHLAVRIGGRYVVAGKMSISPNTTYPSLLEDGRVEYRVALTEDRLPRLEEIRIWGPLQEDADIQVYRRYGEEYGNLTRPDITFTYFQPKPRQAEPKSCDKTHTCPPCPAPEFLGGPSVFLFPPKPKDTLYITREPEVTCVVVDVSQEDPEVQFNWYVDGVEVHNAKTKPREEQFNSTYRVVSVLTVLHQDWLNGKEYKCKVSNKGLPSSIEKTISKAKGQPREPQVYTLPPSQEEMTKNQVSLTCLVKGFYPSDIAVEWESNGQPENNYKTTPPVLDSDGSFFLYSRLTVDKSRWQEGNVFSCSVMHEALHNHYTQKSLSLSL
For B1, the affinity in test [1], expressed as Kd, was 0.144 ± 0.022 nM. In addition, the koff in test [2] is 1.96e-06 s⁻¹.

Source of the values: PMC10999626, “Kinetic modeling of the plasma pharmacokinetic profiles of ADAMTS13 fragment and its Fc-fusion counterpart in mice” (Frontiers in Pharmacology, 2024).
